Drawing on patent US12319742 (SHATTUCK LABS, dated 2025), this text covers Kd for one molecule.

The assay has as its target T1, biotinylated recombinant human TNFRSF25-His tagged (Acro #TN5-H52H3) (human, UniProt Q93038 25-199, biotinylated).
T1 construct: treated as the same protein; also called recombinant biotin-conjugated human TNFRSF25 protein; DR3
T1 sequence (looked up): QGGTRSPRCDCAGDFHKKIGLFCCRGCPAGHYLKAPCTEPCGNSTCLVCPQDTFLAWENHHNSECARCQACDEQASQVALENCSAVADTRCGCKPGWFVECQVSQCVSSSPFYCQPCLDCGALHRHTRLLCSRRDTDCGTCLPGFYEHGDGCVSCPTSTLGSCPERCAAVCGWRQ
In words: BLI/Octet; biotinylated TNFRSF25 on streptavidin sensor, antibody in solution; 1:1 Langmuir model. A general note: Biolayer interferometry detects binding as a change in optical thickness at a sensor tip.

B1: 033_NH24 biparatopic antibody (bispecific antibody, human IgG1, kappa, L234A L235A)
heavy 1: not shown
light 1: AIQLTQSPSSLSASVGDRVTITCRASPGISSALAWYQQKPGKAPKLLMYDESSQESGVPSRFSGSGSGTDFTLTISSLQPEDFATYYCQQFNDYPLTFGGGTKVEIKRTVAAPSVFIFPPSDEQLKSGTASVVCLLNNFYPREAKVQWKVDNALQSGNSQESVTEQDSKDSTYSLSSTLTLSKADYEKHKVYACEVTHQGLSSPVTKSFNRGEC
heavy 2: EVQLVESGGGSVQPGGSLRLSCAASGFTFSSYGMSWIRQAPGKGLEWISYISSSGGHTYYADSVKGRFTISRDNAKNSLYLQMNSLRAEDTAVYYCARGSGSFDYWGQGTLVTVSSASTKGPSVFPLAPSSKSTSGGTAALGCLVKDYFPEPVTVSWNSGALTSGVHTFPAVLQSSGLYSLSSVVTVPSSSLGTQTYICNVNHKPSNTKVDKKVEPKSCDKTHTCPPCPAPEAAGGPSVFLFPPKPKDTLMISRTPEVTCVVVDVSHEDPEVKFNWYVDGVEVHNAKTKPREEQYNSTYRVVSVLTVLHQDWLNGKEYKCKVSNKALPAPIEKTISKAKGQPREPQVCTLPPSREEMTKNQVSLSCAVKGFYPSDIAVEWESNGQPENNYKTTPPVLDSDGSFFLVSKLTVDKSRWQQGNVFSCSVMHEALHNHYTQKSLSLSPGK
light 2: not shown
Regarding B1, the Kd is 0.14 nM.

Broadly, the Kd is the equilibrium constant for the complex coming apart.
